Measured values taken from patent US20150368338A1 (Janssen / Centocor, published 2015).

Assays:
human IFN-ω [1] = biological target: T1, human IFN-ω (human, UniProt P05000 24-195); test: cell-based or functional assay
IFN-α4a [2] = biological target: IFN-α4a (human, UniProt P05014 24-189); test: cell-based or functional assay
IFN-αJ1 [3] = biological target: IFN-αJ1 (human, UniProt P01567 24-189); test: cell-based or functional assay
IFN-αI [4] = biological target: T2, IFN-αI (human, UniProt P01571 24-189); test: cell-based or functional assay
IFN-αK [5] = biological target: IFN-αK (human, UniProt P05013 24-189); test: cell-based or functional assay
IFN-αWA [6] = biological target: IFN-αWA (human, UniProt P05015 24-189); test: cell-based or functional assay
IFN-α4a [7] = biological target: IFN-α4a (human, UniProt P05014 24-189); test: cell-based or functional assay; remark: listed apart in the source
IFN-αJ1 [8] = biological target: IFN-αJ1 (human, UniProt P01567 24-189); test: cell-based or functional assay; remark: listed apart in the source
IFN-αH2 = IFN-αH2 (human, UniProt P01570 24-189); test: cell-based or functional assay
IFN-αI [9] = biological target: T2, IFN-αI; test: cell-based or functional assay; remark: listed apart in the source
IFN-αG = IFN-αG (human, UniProt P01569 24-189); test: cell-based or functional assay
IFN-αC = IFN-αC (human, UniProt P01566 24-189); test: cell-based or functional assay
human IFN-ω [10] = biological target: human IFN-ω (human, UniProt P05000 24-195); test: cell-based or functional assay; remark: listed apart in the source
IFN-αF = biological target: T3, IFN-αF (human, UniProt P01568 24-189); test: cell-based or functional assay
T3 chain: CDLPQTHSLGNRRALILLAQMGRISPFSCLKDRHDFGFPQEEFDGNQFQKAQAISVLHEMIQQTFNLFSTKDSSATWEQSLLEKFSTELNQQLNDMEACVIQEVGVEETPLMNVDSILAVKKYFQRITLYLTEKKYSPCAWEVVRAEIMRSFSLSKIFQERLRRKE

IFN-αWA [11] = biological target: IFN-αWA (human, UniProt P05015 24-189); test: cell-based or functional assay; remark: listed apart in the source
IFN-αK [12] = biological target: IFN-αK (human, UniProt P05013 24-189); test: cell-based or functional assay; remark: listed apart in the source
[13] = biological target: T4, Human IFN-ω T80E variant with a C-terminal 6xHis-Tag (human, UniProt P05000 24-195); test: complex purified by size exclusion and crystallized
Protocol: The Fab was received in 20 mM Tris pH 7.4, 50 mM NaCl. […] The protein was received in 20 mM Tris, pH 7.4, 50 mM NaCL.

human IFN-ω [14] = biological target: T1, human IFN-ω; test: cell-based or functional assay; remark: listed apart in the source
[15] = biological target: T4, Human IFN-ω T80E variant with a …; test: complex purified by size exclusion and crystallized, X-ray structure
[16] = biological target: T4, Human IFN-ω T80E variant with a …; test: complex crystallized, X-ray structure

B1: IFWM3410 (antibody, IgG1, V domains shown)
VH: EVQLVQSGAEVKKPGESLKISCKGSGYSFTSYWIGWVRQMPGKGLEWMGIIDPSDSDTRYSPSFQGQVTISADKSISTAYLQWSSLKASDTAMYYCARHPGLAWAPDFDYWGQGTLVTVSS
VL: DIQMTQSPSSLSASVGDRVTITCRASQSIANTNLNWYQQKPGKAPKLLIHWASSLQSGVPSRFSGSGSGTDFTLTISSLQPEDFATYYCQQWYDNPLTFGQGTKVEIK
Human IFN-ω [1]
  IC50 (pM), ISRE assay: 89 pM
IFN-α4a [2]
  IC50 (pM), ISRE assay: 192 pM
IFN-αJ1 [3]
  IC50 (pM), ISRE assay: 217 pM
IFN-αI [4]
  IC50 (pM), ISRE assay: 183 pM
IFN-αK [5]
  IC50 (pM), ISRE assay: 41 pM
IFN-αWA [6]
  IC50 (pM), ISRE assay: 538 pM

B2: IFWM3525 (antibody, IgG1, V domains shown)
VH: EVQLVQSGAEVKKPGESLKISCKGSGYSFTSYWIGWVRQMPGKGLEWMGIIDPSDSDTRYSPSFQGQVTISADKSISTAYLQWSSLKASDTAMYYCARHPGLNWAPDFDYWGQGTLVTVSS
VL: DIQMTQSPSSLSASVGDRVTITCRASQSIDNSYLNWYQQKPGKAPKLLIYGASSLQSGVPSRFSGSGSGTDFTLTISSLQPEDFATYYCQQGYDFPLTFGQGTKVEIK
IFN-α4a [7]
  IC50, ISRE reporter gene assay: 0.042 nM
IFN-αJ1 [8]
  IC50, ISRE reporter gene assay: 0.084 nM
IFN-αH2
  IC50, ISRE reporter gene assay: 0.015 nM
IFN-αI [9]
  IC50, ISRE reporter gene assay: 0.24 nM
IFN-αG
  IC50, ISRE reporter gene assay: 0.019 nM
IFN-αC
  IC50, ISRE reporter gene assay: 0.034 nM
Human IFN-ω [10]
  IC50, ISRE reporter gene assay: 0.019 nM
IFN-αF
  IC50, ISRE reporter gene assay: 0.082 nM
IFN-αWA [11]
  IC50, ISRE reporter gene assay: 0.066 nM
IFN-αK [12]
  IC50, ISRE reporter gene assay: 0.007 nM

B3: IFWM3522 (antibody, IgG1, V domains shown)
VH: EVQLVQSGAEVKKPGESLKISCKGSGYSFTSYWIGWVRQMPGKGLEWMGIIDPSDSDTRYSPSFQGQVTISADKSISTAYLQWSSLKASDTAMYYCARHPGLNWAPDFDYWGQGTLVTVSS
VL: DIQMTQSPSSLSASVGDRVTITCRASQSIEGALNWYQQKPGKAPKLLIYFASSLQSGVPSRFSGSGSGTDFTLTISSLQPEDFATYYCQQAYDFPLTFGQGTKVEIK
IFN-α4a [7]
  IC50, ISRE reporter gene assay: 0.163 nM
IFN-αJ1 [8]
  IC50, ISRE reporter gene assay: 0.134 nM
IFN-αH2
  IC50, ISRE reporter gene assay: 0.034 nM
IFN-αI [9]
  IC50, ISRE reporter gene assay: 0.124 nM
IFN-αG
  IC50, ISRE reporter gene assay: 0.057 nM
IFN-αC
  IC50, ISRE reporter gene assay: 0.077 nM
Human IFN-ω [10]
  IC50, ISRE reporter gene assay: 0.053 nM
IFN-αF
  IC50, ISRE reporter gene assay: 0.225 nM
IFN-αWA [11]
  IC50, ISRE reporter gene assay: 0.185 nM
IFN-αK [12]
  IC50, ISRE reporter gene assay: 0.029 nM

B4: IFWM3416 (antibody, IgG1, V domains shown)
VH: EVQLVQSGAEVKKPGESLKISCKGSGYSFTSYWIGWVRQMPGKGLEWMGIIDPSDSDTRYSPSFQGQVTISADKSISTAYLQWSSLKASDTAMYYCARHPGLAWAPDFDYWGQGTLVTVSS
VL: DIQMTQSPSSLSASVGDRVTITCRASQSIRNTNLNWYQQKPGKAPKLLIHWASSLQSGVPSRFSGSGSGTDFTLTISSLQPEDFATYYCQQGYDTPFTFGQGTKVEIK
Human IFN-ω [1]
  IC50 (pM), ISRE assay: 40 pM
IFN-α4a [2]
  IC50 (pM), ISRE assay: 201 pM
IFN-αJ1 [3]
  IC50 (pM), ISRE assay: 61 pM
IFN-αI [4]
  IC50 (pM), ISRE assay: 158 pM
IFN-αK [5]
  IC50 (pM), ISRE assay: 43 pM
IFN-αWA [6]
  IC50 (pM), ISRE assay: 779 pM

B5: Fab IFWM371 (His-tagged, IgG1/kappa isotype) (Fab, V domains shown)
VH: EVQLVQSGAEVKKPGESLKISCKGSGYSFTSYWIGWVRQMPGKGLEWMGIIDPSDSDTRYSPSFQGQVTISADKSISTAYLQWSSLKASDTAMYYCARHPGLNWAPDFDYWGQGTLVTVSS
VL: not shown
notes: His-tagged Fab expressed in HEK293 cells for crystallography; C-terminal 6xHis tag; also called FabM371; Fab of IFWM371
[13]
  binding result: binds

B6: IFWM3460 (antibody, V domains shown)
VH: EVQLVQSGAEVKKPGESLKISCKGSGYSFTSYWIGWVRQMPGKGLEWMGIIDPSDSDTRYSPSFQGQVTISADKSISTAYLQWSSLKASDTAMYYCARHPGLNWAPDFDYWGQGTLVTVSS
VL: DIQMTQSPSSLSASVGDRVTITCRASQSIDGFLNWYQQKPGKAPKLLIYVASSLQSGVPSRFSGSGSGTDFTLTISSLQPEDFATYYCQQSYDLPITFGQGTKVEIK
Human IFN-ω [14]
  IC50 (pM), ISRE reporter gene assay: 43.5 pM

B7: IFWM3455 (antibody, V domains shown)
VH: EVQLVQSGAEVKKPGESLKISCKGSGYSFTSYWIGWVRQMPGKGLEWMGIIDPSDSDTRYSPSFQGQVTISADKSISTAYLQWSSLKASDTAMYYCARHPGLNWAPDFDYWGQGTLVTVSS
VL: DIQMTQSPSSLSASVGDRVTITCRASQSIDGYLNWYQQKPGKAPKLLIYFASSLQSGVPSRFSGSGSGTDFTLTISSLQPEDFATYYCQQSYDLPITFGQGTKVEIK
Human IFN-ω [14]
  IC50 (pM), ISRE reporter gene assay: 24 pM

B8: Fab of IFWM3525 (Fab, V domains shown)
VH: EVQLVQSGAEVKKPGESLKISCKGSGYSFTSYWIGWVRQMPGKGLEWMGIIDPSDSDTRYSPSFQGQVTISADKSISTAYLQWSSLKASDTAMYYCARHPGLNWAPDFDYWGQGTLVTVSS
VL: DIQMTQSPSSLSASVGDRVTITCRASQSIDNSYLNWYQQKPGKAPKLLIYGASSLQSGVPSRFSGSGSGTDFTLTISSLQPEDFATYYCQQGYDFPLTFGQGTKVEIK
notes: Fab for crystallography with C-terminal 6xHis tag; also called Fab IFWM3525
[15]
  binding result: binds

B9: Fab IFWM3421 (Fab, V domains shown)
VH: EVQLVQSGAEVKKPGESLKISCKGSGYSFTSYWIGWVRQMPGKGLEWMGIIDPSDSDTRYSPSFQGQVTISADKSISTAYLQWSSLKASDTAMYYCARHPGLNWAPDFDYWGQGTLVTVSS
VL: DIQMTQSPSSLSASVGDRVTITCRASQSIDGFLNWYQQKPGKAPKLLIYFASSLQSGVPSRFSGSGSGTDFTLTISSLQPEDFATYYCQQSYDLPITFGQGTKVEIK
notes: also called Fab3421; FabM3421
[16]
  binding result: binds
